Patent US20210386829A1, “COMPOSITIONS AND METHODS FOR MODULATING CGRP SIGNALING TO REGULATE INNATE LYMPHOID CELL INFLAMMATORY RESPONSES” (The Broad Institute, Inc., priority 2018, published 2021)

Test system: lung-resident ILCs
Test: SMART-Seq2 plate-based scRNA-seq of lung-resident ILCs from PBS-, IL-25- or IL-33-treated mice, differential gene expression by logistic regression (Tables 3, 4)
Type: in vivo, mouse
Description: Mice and in vivo ILC activation. C57B1/6J mice were purchased from the Jackson Laboratory. Nmur1-LacZ reporter mice with a LacZ cassette knocked into the Nmur1 locus were rederived from Nmur1^tm1.1(KOMP)Vlcg sperm obtained from the trans-NIH Knock-Out Mouse Project (KOMP) Repository. NMU-deficient mice (NMU-KO) were rederived from B6.129S2-Nmu<tm1Mko> embryos from the RIKEN BioResource Center. For experiments with Nmur1-LacZ (Nmur1-KO) and NMU-KO mice, littermates that were either homozygous or heterozygous for the wild type allele were used as controls. Mice were housed under specific-pathogen-free conditions. For experiments, mice were matched for sex and age, and most mice were 6-10 weeks old. Where indicated, mice were anesthetized with Isoflurane and treated intranasally with the indicated stimuli (500 ng IL-25, 500 ng IL-33, or 20 μg Neuromedin U) daily for three consecutive days. The total administered volume was 20 μl for all conditions. Mice were randomly assigned to treatment groups after matching for sex and age. […] Mice were treated intranasally with 10 μg HDM on day 0, 7, 8, and 9, prior to sacrifice on day 10. All experiments were conducted in accordance with animal protocols approved by the Harvard Medical Area Standing Committee on Animals or BWH IACUC.
Fluorescence-activated cell sorting of innate lymphoid cells. After dissociation, single cell suspensions were incubated with CD90.2 MicroBeads (Miltenyi Biotec) on ice and enriched for CD90.2^+ cells by magnetic separation using LS columns according to the manufacturer's protocol. CD90.2^+ lung cells were then stained on ice with antibodies for sorting. ILCs were defined as 7AAD^− CD45^+ CD90.2^+ CD127^+ Lineage (CD11b, CD11c, CD19, NK1.1, […], CD4, CD8a, TCRβ, TCRγδ)^− cells and sorted on a BD FACS Aria (BD Biosciences).
For full-length scRNA-Seq, single ILCs were sorted into 96-well plates containing 5 ul TCL Buffer (QIAGEN) with 1% 2-Mercaptoethanol, centrifuged and frozen at −80° C. SMART-Seq2 protocol was carried out as previously described^23 with minor modifications in the reverse transcription step. cDNA was amplified with 22 cycles and fragmented with one-eighth of the standard Illumina NexteraXT reaction volume. Single-cell libraries were pooled and paired-end sequenced (38 bp×2) with a 75 cycle Nextseq 500 high output V2 kit.
Analysis of SMART-Seq2 plate-based scRNA-Seq data. Reads were aligned to mm10 using Kallisto (Bray, N. L., Pimentel, H., Meisted, P. & Pachter, L. Near-optimal probabilistic RNA-seq quantification. Nat Biotechnol 134, 525-527, doi:10.1038/nbt.3519 (2016)) quant, version 0.42.3. The R package tximport (Soneson, C., Love, M. I. & Robinson, M. D. Differential analyses for RNA-seq: transcript-level estimates improve gene-level inferences [version 2; referees: 2 approved]. F1000Research 4, doi:10.12688/f1000research.7563.2 (2016)), version 1.2.0, was used to convert the output to gene counts and traditional TPM values. Because of the variability in read counts per cell across plates, even from the same condition, as well as in the number of genes per cell across conditions, QC was performed for each of eight plates individually in order to remove cells that were outliers with respect to either measure. Out of 752 cells, 606 cells met QC criteria (234 from control, 152 from IL-25 treated mice, and 220 from IL-33 treated mice), and the number of genes per cell in this set ranged from 1,625 to 6,375. Genes that were not expressed with log(TPM)>2.5 in at least two cells were removed from further analysis. Subsequent analysis proceeded analogously to the droplet-based RNA-seq analysis, with parameter settings that reflected both the wider dynamic range of expression and much smaller cell numbers. The minimum ILC signature score required in ILC type assignment was 0.3. Variable genes were identified by running MeanVarPlot with x.low.cutoff=0.1, y.cutoff=1.5, and x.high.cutoff=10, resulting in a set of 519 genes. […]

B1: IL25 (protein, UniProt Q8VHH8 17-169, looked up)
Interleukin-25: VSLRIQEGCSHLPSCCPSKEQEPPEEWLKWSSASVSPPEPLSHTHHAESCRASKDGPLNSRAISPWSYELDRDLNRVPQDLYHARCLCPHCVSLQTGSHMDPLGNSVPLYHNQTVFYRRPCHGEEGTHRRYCLERRLYRVSLACVCVRPRVMA
  0610031J06Rik expression coeff: 0.555
  1700017B05Rik expression coeff: −1.49
  1700113H08Rik expression coeff: −0.86
  4632428N05Rik expression coeff: 1.28
  AA467197 expression coeff: −0.724
  AI593442 expression coeff: −2.55
  AI836003 expression coeff: −0.781
  AW112010 expression coeff: 0.787
  Abtb2 expression coeff: 0.292
  Acot7 expression coeff: 0.807
  Adrbk1 expression coeff: 0.798
  Adsl expression coeff: −1.77
  Ahcyl2 expression coeff: −1.01
  Amd1 expression coeff: −0.74
  Anxa2 expression coeff: 0.693
  Ap3d1 expression coeff: 0.719
  Arf5 expression coeff: 0.592
  Arhgap1 expression coeff: 1.34
  Arhgap26 expression coeff: 0.821
  Asl expression coeff: 1.17
  Asph expression coeff: −1.27
  Atp8b4 expression coeff: 1
  Atxn7l3b expression coeff: 0.557
  Bcl2a1d expression coeff: 0.357
  Bcl3 expression coeff: 1.33
  Bcl6 expression coeff: 1.29
  Bmp2 expression coeff: −0.856
  Brix1 expression coeff: −0.00742
  C1qbp expression coeff: −0.742
  Cap1 expression coeff: 1.28
  Cblb expression coeff: 1.08
  Ccdc50 expression coeff: 1.05
  Ccdc142 expression coeff: −1.86
  Ccng1 expression coeff: 0.622
  Ccr2 expression coeff: −1.53
  Cd247 expression coeff: 1.16
  Chdh expression coeff: −0.136
  Chordc1 expression coeff: 1.4
  Chst11 expression coeff: −0.0352
  Cirbp expression coeff: −1.41
  Commd10 expression coeff: −0.867
  Cox10 expression coeff: 0.786
  Cpsf7 expression coeff: 0.986
  Crlf2 expression coeff: 0.355
  Csf1 expression coeff: −1.01
  Cst7 expression coeff: −0.0555
  Ctla4 expression coeff: 1.48
  Ctsw expression coeff: −0.0379
  Cybrd1 expression coeff: −0.158
  Dcaf12 expression coeff: 0.717
  Ddrgk1 expression coeff: −0.21
  Ddx20 expression coeff: −1.24
  Ddx58 expression coeff: 0.528
  Dennd5a expression coeff: 0.929
  Dgka expression coeff: −0.0503
  Dhx35 expression coeff: −1.63
  Dhx37 expression coeff: −0.288
  Dhx58 expression coeff: 2.3
  Dkk3 expression coeff: −0.0269
  Dock10 expression coeff: −0.792
  E030030I06Rik expression coeff: −0.87
  Ecm1 expression coeff: −0.0192
  Endod1 expression coeff: 0.398
  Epsti1 expression coeff: 1.79
  Eva1b expression coeff: 0.99
  Exosc4 expression coeff: −0.31
  Extl3 expression coeff: −0.16
  Fam118a expression coeff: −0.764
  Fbxl21 expression coeff: 12.2
  Ffar2 expression coeff: 1.36
  Fhl2 expression coeff: −1.07
  Fosb expression coeff: 0.156
  Foxo3 expression coeff: 2.06
  Fus expression coeff: −0.388
  Gal3st3 expression coeff: −1.01
  Gba expression coeff: −0.05
  Gbp4 expression coeff: 0.318
  Gbp6 expression coeff: 0.949
  Gbp9 expression coeff: 0.745
  Gga1 expression coeff: 0.739
  Gigyf1 expression coeff: −0.844
  Glrx expression coeff: 0.346
  Gm12250 expression coeff: 3.54
  Gnai2 expression coeff: 0.501
  Gng2 expression coeff: 1.06
  Gnl3l expression coeff: −0.617
  Gp49a expression coeff: 1.04
  Gpr108 expression coeff: 0.205
  Grn expression coeff: −0.326
  Gskip expression coeff: 0.645
  Gucd1 expression coeff: −0.0721
  H2-T9 expression coeff: 0.437
  H2-T10 expression coeff: 0.799
  H2-T22 expression coeff: 0.0651
  Herc6 expression coeff: 0.579
  Hpcal1 expression coeff: −0.169
  Hsph1 expression coeff: 0.237
  Idh2 expression coeff: −0.56
  Ifi35 expression coeff: 0.307
  Ifngr2 expression coeff: −0.761
  Ifrd2 expression coeff: −1.53
  Igfbp4 expression coeff: −2.9
  Igsf5 expression coeff: −0.93
  Il2rb expression coeff: 0.699
  Il5 expression coeff: 1.4
  Il13 expression coeff: 1.61
  Impact expression coeff: −1.46
  Inpp1 expression coeff: 1.79
  Inpp4b expression coeff: −0.752
  Inpp5b expression coeff: 0.937
  Irf4 expression coeff: 1.11
  Irf7 expression coeff: 0.423
  Isg15 expression coeff: 2.03
  Isg20 expression coeff: 1.54
  Itgae expression coeff: −0.182
  Kit expression coeff: −0.406
  Krit1 expression coeff: 0.612
  Lamp2 expression coeff: 0.692
  Lancl1 expression coeff: −1.11
  Lat2 expression coeff: −0.0259
  Lcmt2 expression coeff: −2.32
  Lgals3bp expression coeff: 0.804
  Lgals3 expression coeff: 0.303
  Lilrb4 expression coeff: 0.943
  Lpcat2 expression coeff: −0.773
  Lsm6 expression coeff: −0.616
  Lxn expression coeff: 0.065
  Ly6a expression coeff: 0.412
  Map2k4 expression coeff: 1.89
  Marf1 expression coeff: 3.17
